Source: paper PMC11128890 (Frontiers in Cell and Developmental Biology, 2024)
Substitutions are numbered along the chain they refer to. In names and notes the source's numbering stands. One block for each molecule: values may come before it.

How the values were obtained:
[1] = biological target: KDR domain 1 (D1) fused to GST; experiment: ELISA-type binding assay; details: GST-KDR-D1 100 μg/mL, read off a plot
[2] = biological target: VEGFR2/KDR (Homo sapiens) (UniProt P35968); details: cited from earlier work
[3] = biological target: T1, KDR domain 1 (D1) fused to GST; experiment: ELISA-type binding assay; details: chain shown with the change, read off a plot
T1 chain: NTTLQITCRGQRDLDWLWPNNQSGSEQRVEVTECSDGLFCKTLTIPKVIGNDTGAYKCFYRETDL

[4] = biological target: T2, recombinant soluble integrin αvβ3 (UniProt P06756 31-987; P05106 27-718); experiment: ELISA; HBD, NTD or HBD mutants coated on 96-well plates, blocked with BSA; soluble αvβ3 (1 μg/mL) in HEPES-Tyrode buffer + 1 mM MnCl2, 1 h room temperature; bound αvβ3 detected with anti-β3 mAb AV10; binding to HBD inhibited by mAb 7E3 and cation-dependent; details: both partners purified
T2 construct: integrin αv subunit, soluble expression construct; integrin β3 subunit, soluble expression construct; PDB 1L5G is the αvβ3 structure used for docking, not necessarily the same limits; also called soluble αvβ3; source: CHO K1 cells, soluble αv and β3 expression constructs, purified (Ni-NTA)

[5] = biological target: T2, recombinant soluble integrin αvβ3; experiment: SPR; soluble αvβ3 (His-tagged) immobilised on CM5 chip by amine coupling; HBD injected at 50 μL/min for 1.8 min; HBS-P buffer (0.01 M HEPES pH 7.4, 0.15 M NaCl, 0.0005% P20) with 1 mM Mn2+; details: both partners purified
[6] = biological target: T3, KDR domain 1 (D1), His-tagged; experiment: SPR
T3 chain: T1 chain

[7] = biological target: T4, KDR domain 1 (D1), His-tagged; experiment: SPR; KDR D1 (His-tagged) immobilised on CM5 chip by amine coupling; HBD injected at 50 μL/min for 1.8 min; HBS-EP buffer (0.01 M HEPES pH 7.4, 0.15 M NaCl, 3 mM EDTA, 0.0005% P20); details: both partners purified
T4 construct: first IgG-like domain (D1) of VEGFR2/KDR, amplified from full-length KDR cDNA; Cloned into the BamHI/EcoRI site of pET28a; also called KDR D1; KDR D1 (His-tagged)
T4 chain: T1 chain

[8] = HBD at 10 µg/ml, parent: est. 0.93
[9] = HBD coated at 20 µg/ml (highest point of the curve), parent: est. 1.4
[10] = GST-KDR-D1 100 μg/mL, parent: est. 0.51

T2 sequence (P06756 31-987, chain 1 of 2): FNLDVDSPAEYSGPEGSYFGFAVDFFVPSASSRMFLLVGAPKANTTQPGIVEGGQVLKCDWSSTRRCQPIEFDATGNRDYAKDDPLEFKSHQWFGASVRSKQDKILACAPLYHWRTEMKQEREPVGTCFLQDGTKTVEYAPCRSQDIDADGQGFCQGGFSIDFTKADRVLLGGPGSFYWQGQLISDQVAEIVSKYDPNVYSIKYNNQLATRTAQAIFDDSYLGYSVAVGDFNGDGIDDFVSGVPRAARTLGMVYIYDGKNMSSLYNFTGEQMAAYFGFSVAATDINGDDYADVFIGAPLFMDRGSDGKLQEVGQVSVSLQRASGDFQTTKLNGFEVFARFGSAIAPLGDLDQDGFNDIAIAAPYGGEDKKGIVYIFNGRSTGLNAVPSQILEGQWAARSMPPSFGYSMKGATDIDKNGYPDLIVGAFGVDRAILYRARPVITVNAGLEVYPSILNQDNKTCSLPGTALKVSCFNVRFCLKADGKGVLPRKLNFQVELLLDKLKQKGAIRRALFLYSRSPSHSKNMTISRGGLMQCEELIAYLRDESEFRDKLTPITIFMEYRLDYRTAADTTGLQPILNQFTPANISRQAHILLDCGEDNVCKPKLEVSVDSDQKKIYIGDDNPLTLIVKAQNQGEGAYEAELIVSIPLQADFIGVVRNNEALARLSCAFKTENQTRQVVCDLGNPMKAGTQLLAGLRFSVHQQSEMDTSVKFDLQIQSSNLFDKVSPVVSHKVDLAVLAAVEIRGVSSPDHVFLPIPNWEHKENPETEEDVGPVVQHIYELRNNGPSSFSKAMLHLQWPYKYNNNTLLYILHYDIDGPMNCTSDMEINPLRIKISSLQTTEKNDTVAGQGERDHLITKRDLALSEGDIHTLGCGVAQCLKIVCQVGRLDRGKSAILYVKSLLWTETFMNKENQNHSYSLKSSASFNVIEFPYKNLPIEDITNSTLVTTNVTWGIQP
T2 sequence (P05106 27-718, chain 2 of 2): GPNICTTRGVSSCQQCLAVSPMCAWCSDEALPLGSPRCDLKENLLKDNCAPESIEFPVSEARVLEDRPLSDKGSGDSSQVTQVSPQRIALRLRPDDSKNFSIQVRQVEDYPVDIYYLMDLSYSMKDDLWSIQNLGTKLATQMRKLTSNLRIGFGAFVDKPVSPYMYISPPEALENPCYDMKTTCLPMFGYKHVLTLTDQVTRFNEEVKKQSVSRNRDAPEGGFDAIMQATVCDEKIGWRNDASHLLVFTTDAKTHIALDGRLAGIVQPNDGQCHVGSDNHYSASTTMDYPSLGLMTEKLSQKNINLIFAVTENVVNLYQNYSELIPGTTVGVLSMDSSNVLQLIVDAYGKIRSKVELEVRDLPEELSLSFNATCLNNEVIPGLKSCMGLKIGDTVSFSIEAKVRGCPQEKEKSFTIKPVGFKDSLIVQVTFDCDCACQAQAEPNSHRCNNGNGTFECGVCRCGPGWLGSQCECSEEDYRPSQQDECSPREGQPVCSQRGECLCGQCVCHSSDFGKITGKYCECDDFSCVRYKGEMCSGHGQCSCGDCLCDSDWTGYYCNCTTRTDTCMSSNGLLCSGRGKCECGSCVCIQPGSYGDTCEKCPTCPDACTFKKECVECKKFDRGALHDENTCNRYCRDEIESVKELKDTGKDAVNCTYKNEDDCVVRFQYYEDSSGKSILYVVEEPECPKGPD
VEGFR2/KDR (Homo sapiens), sequence (P35968 20-1356): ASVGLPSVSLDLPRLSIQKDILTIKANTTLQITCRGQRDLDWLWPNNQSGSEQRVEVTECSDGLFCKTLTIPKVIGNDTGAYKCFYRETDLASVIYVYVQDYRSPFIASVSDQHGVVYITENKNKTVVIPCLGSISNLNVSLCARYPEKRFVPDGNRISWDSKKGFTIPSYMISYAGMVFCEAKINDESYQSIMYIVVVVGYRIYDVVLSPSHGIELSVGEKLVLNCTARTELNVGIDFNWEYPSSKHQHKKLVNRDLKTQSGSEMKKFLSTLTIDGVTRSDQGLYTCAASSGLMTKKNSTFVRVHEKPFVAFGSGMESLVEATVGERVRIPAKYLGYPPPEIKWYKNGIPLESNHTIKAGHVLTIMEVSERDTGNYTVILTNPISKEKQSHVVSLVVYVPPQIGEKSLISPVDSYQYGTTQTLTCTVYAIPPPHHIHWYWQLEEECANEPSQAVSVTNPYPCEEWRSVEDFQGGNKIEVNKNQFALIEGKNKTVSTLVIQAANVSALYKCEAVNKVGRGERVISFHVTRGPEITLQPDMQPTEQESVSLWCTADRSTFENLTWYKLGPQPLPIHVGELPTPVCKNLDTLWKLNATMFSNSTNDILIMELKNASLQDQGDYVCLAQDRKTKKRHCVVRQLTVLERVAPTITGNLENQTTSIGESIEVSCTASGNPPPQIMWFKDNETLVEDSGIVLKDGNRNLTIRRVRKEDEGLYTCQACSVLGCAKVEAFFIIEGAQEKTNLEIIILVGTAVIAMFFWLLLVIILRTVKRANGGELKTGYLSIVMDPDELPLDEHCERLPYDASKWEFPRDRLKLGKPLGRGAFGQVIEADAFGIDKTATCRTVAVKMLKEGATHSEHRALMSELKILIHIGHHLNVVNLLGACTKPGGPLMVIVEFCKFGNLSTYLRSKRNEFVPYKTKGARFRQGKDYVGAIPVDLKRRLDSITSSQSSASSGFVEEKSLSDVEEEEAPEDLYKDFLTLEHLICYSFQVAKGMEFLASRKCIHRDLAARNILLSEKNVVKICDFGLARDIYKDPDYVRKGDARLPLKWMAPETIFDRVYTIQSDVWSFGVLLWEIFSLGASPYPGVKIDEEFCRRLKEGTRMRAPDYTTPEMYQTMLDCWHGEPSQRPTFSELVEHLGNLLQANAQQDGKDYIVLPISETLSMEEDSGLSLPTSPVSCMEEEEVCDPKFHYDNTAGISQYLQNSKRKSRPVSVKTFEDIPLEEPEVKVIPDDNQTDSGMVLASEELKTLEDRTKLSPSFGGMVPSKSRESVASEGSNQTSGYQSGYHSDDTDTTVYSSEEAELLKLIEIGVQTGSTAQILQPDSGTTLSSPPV

- response [1, 8]: 0.73 OD450
- response [1, 9]: 0.89 OD450
Molecule: VEGF165 heparin-binding domain (HBD), wild type K140E

Molecule: VEGF165 (from UniProt P15692)
- Kd [2]: 0.00014 µM

- response [1, 8]: 1 OD450
Molecule: VEGF165 heparin-binding domain (HBD), wild type K136E

- response [1, 8]: 0.74 OD450
- response [1, 9]: 1.1 OD450
Molecule: VEGF165 heparin-binding domain (HBD), wild type K145E

- response [3, 10]: 0.31 OD450
B1: VEGF165 heparin-binding domain (HBD), wild type K125E (peptide)
chain: PCGPCSERREHLFVQDPQTCKCSCKNTDSRCKARQLELNERTCRCDKPRR

- binding result [4]: binds
B2: VEGF165 HBD R123A/R124A/K125A mutant (domain or fragment, human)
chain: B1 chain with R8A, R9A, E10A
notes: the substitutions are to be applied

- response [3, 10]: 0.2 OD450
B3: VEGF165 heparin-binding domain (HBD), wild type R124E (peptide)
chain: B1 chain with R9E, E10K

- response [3, 10]: 0.14 OD450
B4: VEGF165 heparin-binding domain (HBD), wild type R123E (peptide)
chain: B1 chain with R8E, E10K

- response ([3]; left graph (dose-response), HBD coated at 10 µg/ml, soluble GST-tagged KDR fragment 100 μg/mL, parent: est. 0.77): 0.1 OD450
- response ([3]; left graph (dose-response), HBD coated at 20 µg/ml, soluble GST-tagged KDR fragment 100 μg/mL, parent: est. 1.2): 0.16 OD450
- response ([3]; right graph (bar chart), 20 µg/ml, n=3, soluble GST-tagged KDR fragment 100 μg/mL, parent: est. 1.4): 0.13 OD450
B5: VEGF165 heparin-binding domain (HBD), wild type R123A; R124A; K125A; K140A; R145A; R149A (peptide)
chain: B1 chain with R8A, R9A, E10A, K25A, R30A, R34A

- binding result [4]: binds
B6: VEGF165 HBD K140A/R145A/R149A mutant (domain or fragment, human)
chain: B1 chain with E10K, K25A, R30A, R34A
notes: as for B2

- response [3, 10]: 0.06 OD450
- response ([3]; HBD at 10 µg/ml, GST-KDR-D1 100 μg/mL, parent: est. 0.93): 0.14 OD450
- response ([3]; HBD coated at 20 µg/ml (highest point of the curve), GST-KDR-D1 100 μg/mL, parent: est. 1.4): 0.16 OD450
B7: VEGF165 heparin-binding domain (HBD), wild type R123E; R124E; K125E (peptide)
chain: B1 chain with R8E, R9E

- Kd [5]: 0.47 µM
- Kd [6]: 0.109 µM
- Kd [7]: ~0.1 µM
B8: VEGF165 heparin-binding domain (HBD), wild type (domain or fragment, human)
chain: B1 chain with E10K
notes: Cloned into the BamHI/EcoRI site of pET28a; PDB 2VGH is the HBD structure used for docking; also called VEGF165-HBD; VEGF165 HBD
